Among the data in patent US20150299328A1 are EC50 values, retold here.

Broadly, the EC50 is the midpoint of the concentration-response curve. Read a low EC50 as greater potency.

The assay deals with HIR extracellular domain (ECD) (human) (UniProt P06213). In words: ELISA, HIR ECD plated.

In turn, “CHO-derived HIRMAb-IDUA fusion protein (antibody)” had an EC50 of 750 pM.
